Among the data in PMC8860611 are stoichiometry N values, retold here.

This test deals with HIV-1 CA A14C/E45C/W184A/M185A (pET11a-CA (A14C, E45C, W184A and M185A)), assembled into soluble cross-linked hexamers (HIV-1). Kind of test: cross-linking.

For “HIV-1 CA A14C/E45C/W184A/M185A (pET11a-CA (A14C, E45C, W184A and M185A)), assembled into soluble cross-linked hexamers (natural protein)”, the stoichiometry N (in general, the number of molecules, sites or subunits per partner or assembly) came to 6.
